Measured values taken from patent US20230365705A1 (DYNAMICURE BIOTECHNOLOGY, published 2023).

B1: Recombinant parental 17B10 with a human CH1 domain and mouse IgG1 CH2 and CH3 Fc domains (antibody, V domains shown)
VH: QVQLQQSGPELVKPGASVKISCKASGYAFSSYWLNWVKQRPGKGLEWFGRIYPGDGDTDYNGKFKGKATLTADKSSSTAYMQLRSLTSEDSAVYFCVRGDGYWAMDYWGQGTSVTVSS
VL: DIVMTQAAFSNPVTLGTSASISCRFSKSLLHSNGITYLYWYLQKPGQSPQLLIYQMSNLASGVPDRFSSSGSGTDFTLRISRVEAEDVGVYYCAQNLELPWTFGGGTKLEIK
B2: 7F3 (hybridoma) (antibody, IgG1, V domains shown)
VH: QVQLQQSGADLVRPGASVKLSCKASGYTFTDYEMHWVKQTPVYGLEWIGGIDPETGDTAYNQNFKGKATLTADKSSSAAYMELRSLTSEDSAVYYCTNYGNLYYYAMDYWGQGTSVTVSS
VL: ENVLTQSPAIMSASPGEKVTMTCRASSSVSSSYLHWYQQKSGASPKLWIYSTSNLAFGVPARFSGSGSGTSYSLTISSVEAEDAATYYCQQYSGYPLTFGSGTKLEIK
notes: also called 7F3 mAb; 7F3 mIgG1

How the values were obtained:
[1] = biological target: T1, Human CD93 on cells (human CD93 expressing CHO cells; HUVEC, U937 and KG1a cells) (human, UniProt Q9NPY3 22-652); assay: flow cytometry titration on human CD93 CHO cells; column head printed kd, unit from the axis log (concentration (M))
T1 construct: whole, on cells; also called hCD93 expressing CHO cells; hCD93 CHO cells
T1 sequence (looked up): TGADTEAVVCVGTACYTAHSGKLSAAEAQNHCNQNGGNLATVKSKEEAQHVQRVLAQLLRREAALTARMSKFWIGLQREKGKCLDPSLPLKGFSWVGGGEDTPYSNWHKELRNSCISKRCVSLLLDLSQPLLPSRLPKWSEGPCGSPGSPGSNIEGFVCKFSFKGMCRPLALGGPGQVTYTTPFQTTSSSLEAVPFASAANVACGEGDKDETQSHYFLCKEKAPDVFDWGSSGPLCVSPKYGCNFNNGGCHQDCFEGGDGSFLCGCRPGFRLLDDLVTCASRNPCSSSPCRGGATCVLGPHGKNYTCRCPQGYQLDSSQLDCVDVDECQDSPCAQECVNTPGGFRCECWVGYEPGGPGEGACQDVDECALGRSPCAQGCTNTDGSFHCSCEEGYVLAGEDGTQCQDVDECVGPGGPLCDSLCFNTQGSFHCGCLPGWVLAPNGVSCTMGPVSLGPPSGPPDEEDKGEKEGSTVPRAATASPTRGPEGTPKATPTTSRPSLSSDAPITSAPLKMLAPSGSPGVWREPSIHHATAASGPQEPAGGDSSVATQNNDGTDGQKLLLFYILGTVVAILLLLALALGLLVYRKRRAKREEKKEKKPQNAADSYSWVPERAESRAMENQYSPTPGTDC
Procedure: Cells were quenched with media then counted. Cells were resuspended in FACS buffer (ice cold PBS with 0.5% BSA) and human serum was added to 20% (10% final volume) and put on ice for approximately 20 minutes. 5×10⁴ cells were seeded per well in 100 μL and incubated with serial diluted anti-CD93 antibodies in 100 μL on ice for 2 hours. Samples were then washed by spinning samples at 1200 rpm for 5 minutes. Media was discarded and cells were resuspended in 200 μL ice cold FACS buffer. Cells were washed again and resuspended in 100 μL of secondary Antibody, AlexaFluor647 conjugated anti-human IgG or anti-mouse IgG antibodies (Jackson ImmunoResearch), diluted 1:500 in FACS buffer. Plates were covered with foil to protect from like and incubated for 1 hour on ice. Cells were washed again resuspended in 200 μL ice cold FACS buffer. Cells were washed again and were resuspended in 200 μL fixing solution (PBS with 1% formaldehyde). Samples were stored at 4° C. covered in foil, then were acquired in NovoCyte Flow Cytometer and analyzed by NovoExpress software.

[2] = biological target: T1, Human CD93 on cells (human CD93 …); assay: flow cytometry titration on HUVEC cells -human serum; column head printed kd, unit from the axis log (concentration (M))
Procedure: (§1) Recombinant parental anti-CD93 antibodies were evaluated for their ability to bind to HUVEC cells in the presence or absence of human serum. […] Antibodies were purified using Protein G Sepharose. The resulting antibodies were tested for its binding capacity to a variety of cells that express CD93. […] Cells were quenched with media then counted. Cells were resuspended in FACS buffer (ice cold PBS with 0.5% BSA) and human serum was added to 20% (10% final volume) and put on ice for approximately 20 minutes. 5×10⁴ cells were seeded per well in 100 μL media and incubated with serial diluted anti-CD93 antibodies in 100 μL on ice for 2 hours. Cells were then washed by spinning cells at 1200 rpm for 5 min. Media was discarded and cells were resuspended in 200 μL ice cold FACS buffer. The wash step was repeated and cells were resuspended in 100 μL of secondary antibody, AlexaFluor647 conjugated anti-human IgG or anti-mouse IgG antibodies (Jackson ImmunoResearch), diluted 1:500 in FACS buffer. Plates were blocked from light and incubated 1 hour at 4° C. Cells were then washed again then were resuspended in 200 μL ice cold FACS buffer. Cells were washed again and resuspended in 200 μL fixing solution (PBS with 1% formaldehyde). Samples were stored at 4° C. covered in foil, then were acquired in NovoCyte Flow Cytometer and analyzed by NovoExpress software.

[3] = biological target: T1, Human CD93 on cells (human CD93 …); assay: flow cytometry, CHO cells overexpressing human CD93, antibody 0.01ug, mIgG1 as control, APC-A
[4] = biological target: T1, Human CD93 on cells (human CD93 …); assay: flow cytometry titration on U937 cells -human serum; column head printed kd, unit from the axis log (concentration (M))
Procedure: Cells were quenched with media then counted. Cells were resuspended in FACS buffer (ice cold PBS with 0.5% BSA) and put on ice ˜20 min. 5×10⁴ cells were seeded per well in 100 μL and incubated with serial diluted anti-CD93 antibodies in 100 μL on ice for 2 hours. Samples were then washed by spinning samples at 1200 rpm for 5 minutes. Media was discarded and cells were resuspended in 200 μL ice cold FACS buffer. Cells were washed again and resuspended in 100 μL of secondary Antibody, AlexaFluor647 conjugated anti-human IgG or anti-mouse IgG antibodies (Jackson ImmunoResearch), diluted 1:500 in FACS buffer. Plates were covered with foil to protect from light and were incubated for 1 hour on ice. Samples were then washed again and resuspended in 200 μL ice cold FACS buffer. Cells were washed again and resuspended in 200 μL fixing solution (PBS with 1% formaldehyde). Samples were stored at 4° C. covered in foil, ands were subsequently acquired in NovoCyte Flow Cytometer and analyzed by NovoExpress software.

[5] = biological target: T1, Human CD93 on cells (human CD93 …); assay: flow cytometry titration on HUVEC cells +human serum; column head printed kd, unit from the axis log (concentration (M))
Procedure: as §1

[6] = biological target: T1, Human CD93 on cells (human CD93 …); assay: flow cytometry blocking assay, CHO-hCD93 cells, antibody 50 ug/ml then MMRN2 0.1 ug/ml, APC-A
Procedure: (§2) After incubation, the cells were washed with FACS buffer and incubated with anti-His conjugated APC or streptavidin conjugated APC at a ratio of 1:500 for 30 minutes at 4° C. After washing with FACS buffer twice, the samples were analyzed and data acquired in NovoCyte Flow.

[7] = biological target: T2, Human CD93 recombinant protein (Sino Biological Inc, Catalog #12589-H08H) (human, UniProt Q9NPY3 22-580); assay: summary table, column ELISA (hCD93)
T2 construct: Biotinylated (EZ-LINK NHS-PEG4 biotin) in the BLI assays; also called hCD93; His-tagged human CD93
T2 sequence (looked up): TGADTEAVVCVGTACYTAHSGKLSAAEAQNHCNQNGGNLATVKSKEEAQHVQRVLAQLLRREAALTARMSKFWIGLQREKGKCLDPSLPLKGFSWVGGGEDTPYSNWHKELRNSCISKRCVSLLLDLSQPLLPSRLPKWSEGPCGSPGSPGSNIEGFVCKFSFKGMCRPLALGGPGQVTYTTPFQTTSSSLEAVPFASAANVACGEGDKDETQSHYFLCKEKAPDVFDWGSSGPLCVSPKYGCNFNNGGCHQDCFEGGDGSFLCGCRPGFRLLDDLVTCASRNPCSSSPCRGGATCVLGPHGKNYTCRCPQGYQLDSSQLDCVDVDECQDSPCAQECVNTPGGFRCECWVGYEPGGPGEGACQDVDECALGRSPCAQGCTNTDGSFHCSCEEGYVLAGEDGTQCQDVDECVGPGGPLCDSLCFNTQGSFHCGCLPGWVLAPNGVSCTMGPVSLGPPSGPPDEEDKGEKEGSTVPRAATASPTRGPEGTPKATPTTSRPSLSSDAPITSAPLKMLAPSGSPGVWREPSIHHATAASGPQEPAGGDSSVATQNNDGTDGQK

[8] = biological target: T1, Human CD93 on cells (human CD93 …); assay: flow cytometry blocking assay, CHO-hCD93 cells, antibody 50 ug/ml then MMRN2 0.5 ug/ml, APC-A
Procedure: as §2

[9] = biological target: T1, Human CD93 on cells (human CD93 …); assay: summary table, column FACS (HUVEC cells)
[10] = biological target: T2, Human CD93 recombinant protein (Sino …); assay: summary table, column Octet (hCD93)
[11] = biological target: T1, Human CD93 on cells (human CD93 …); assay: flow cytometry, CHO-hCD93 cells, APC-A
[12] = biological target: T2, Human CD93 recombinant protein (Sino …); assay: ELISA, hCD93-His coated, OD450
Procedure: His-tagged human CD93 was coated onto a 96 well plate at 1 μg/mL in 1×PBS overnight at 4° C. The plate was washed with ELISA wash buffer (Boston BioProduct, Inc.) and the wells were blocked with ELISA blocking buffer for 1 hour at 37° C. Purified antibodies were serially diluted in ELISA blocking buffer (Boston BioProduct, Inc.) and incubated on the receptor for 1 hour at 37° C. The plate was washed with ELISA wash Buffer. […] The plate was washed with ELISA wash buffer. HRP substrate was added for indirect detection of the antibodies binding to CD93.

[13] = biological target: T3, Mouse CD93 on cells (mouse CD93 expressing CHO cells; mouse CD93 expressing HEK cells) (mouse, UniProt O89103 23-644); assay: summary table; method and form of mouse CD93 not given
T3 construct: whole, on cells; also called mCD93 HEK; CD93-HEK cells
T3 sequence (looked up): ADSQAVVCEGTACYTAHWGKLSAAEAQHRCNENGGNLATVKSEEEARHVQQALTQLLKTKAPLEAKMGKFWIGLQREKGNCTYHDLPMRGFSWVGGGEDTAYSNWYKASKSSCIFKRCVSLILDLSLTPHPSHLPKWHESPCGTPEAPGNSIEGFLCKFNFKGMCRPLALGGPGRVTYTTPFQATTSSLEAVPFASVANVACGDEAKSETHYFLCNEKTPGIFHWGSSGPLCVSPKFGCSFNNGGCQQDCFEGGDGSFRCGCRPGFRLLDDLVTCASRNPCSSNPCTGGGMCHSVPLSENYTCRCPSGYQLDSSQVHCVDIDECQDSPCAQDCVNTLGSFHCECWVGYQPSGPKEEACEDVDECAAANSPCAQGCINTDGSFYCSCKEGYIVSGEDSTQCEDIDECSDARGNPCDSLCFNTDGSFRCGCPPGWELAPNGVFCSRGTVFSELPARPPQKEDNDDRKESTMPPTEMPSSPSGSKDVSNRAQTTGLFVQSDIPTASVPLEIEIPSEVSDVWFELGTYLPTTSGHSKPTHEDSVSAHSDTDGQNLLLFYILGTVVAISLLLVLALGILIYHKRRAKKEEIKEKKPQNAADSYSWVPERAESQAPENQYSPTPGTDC

[14] = biological target: T2, Human CD93 recombinant protein (Sino …); assay: BLI (Octet), human CD93; sheet prints Anti-Penta-HIS(HIS1K) biosensor
[15] = biological target: T1, Human CD93 on cells (human CD93 …); assay: summary table, column FACS (CHO-hCD93 cells)

| Binder | Kd [1] [pM] | Kd [2] [pM] | M2 gate, % of cells [3] [%] | Kd [4] [pM] | Kd [5] [pM] | M3 gate, % of cells positive for MMRN2 after the antibody [6] [%] | EC50 [7] [pM] | M3 gate, % of cells positive for MMRN2 after the antibody [8] [%] | EC50 [9] [pM] | Kd [10] [pM] | M3 gate, % of cells [11] [%] | EC50 [12] [pM] | binding result [13] | Kd [14] [pM] | koff [14] [s⁻¹] | kon [14] [M⁻¹ s⁻¹] | EC50 [15] [pM] |
| --- | --- | --- | --- | --- | --- | --- | --- | --- | --- | --- | --- | --- | --- | --- | --- | --- | --- |
| B1 | 163 | 111 | 98.4 | 66.6 | 196 |  |  |  |  |  |  |  |  |  |  |  |  |
| B2 |  |  |  |  |  | 12.2 | 66.7 | 9.93 | 2940 | 493 | 96.3 | 66.7 | no binding | 1260 | 0.000478 | 381000 | 210 |
